Each block holds one binder with its values, some of them ahead of it.
Tests used:
EGFR His antigen = EGFR His antigen (UniProt P00533 25-645); assay: SPR as in Example 2, EGFR His antigen
EGFR expressed on cells [1] = target: T1, EGFR expressed on cells (UniProt P00533 25-1210, limits assumed); assay: flow cytometry on HEK293T-EGFR cells (cell line from paragraph 185); unit taken from the axis 'Concentration (nM)'
T1 construct: whole, on cells; also called HEK293T-EGFR cell line; EGFR over-expressing cells

BCMA expressed on cells = target: T2, BCMA expressed on cells (UniProt Q02223 1-184, limits assumed); assay: flow cytometry on CHOK1-BCMA cells; unit taken from the axis 'Concentration (nM)'
T2 construct: whole, on cells; also called CHOK1-BCMA cell line; BCMA over-expression cell line
T2 sequence (looked up): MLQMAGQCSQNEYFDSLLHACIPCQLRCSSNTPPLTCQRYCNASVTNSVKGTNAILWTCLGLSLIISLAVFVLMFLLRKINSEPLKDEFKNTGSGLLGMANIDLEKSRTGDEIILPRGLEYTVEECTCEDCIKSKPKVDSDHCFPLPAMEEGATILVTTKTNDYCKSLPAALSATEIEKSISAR

BCMA-His antigen = target: T3, BCMA-His antigen (UniProt Q02223 1-54); assay: SPR as in Example 2, BCMA-His antigen
T3 construct: also called BMCA antigen
T3 sequence (looked up): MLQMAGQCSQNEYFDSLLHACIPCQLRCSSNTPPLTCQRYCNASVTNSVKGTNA

EGFR expressed on cells [2] = target: T1, EGFR expressed on cells; assay: flow cytometry on 293T-EGFR cells; unit taken from the axis 'Conc.(nM)'
[3] = target: mesothelin (MSLN) expressed on cells (UniProt Q13421); assay: flow cytometry on 293T-MSLN-Full cells; unit taken from the axis 'Conc.(nM)'
mesothelin (MSLN) expressed on cells, sequence (Q13421 other isoform, or with tags, fused parts or gaps limits assumed): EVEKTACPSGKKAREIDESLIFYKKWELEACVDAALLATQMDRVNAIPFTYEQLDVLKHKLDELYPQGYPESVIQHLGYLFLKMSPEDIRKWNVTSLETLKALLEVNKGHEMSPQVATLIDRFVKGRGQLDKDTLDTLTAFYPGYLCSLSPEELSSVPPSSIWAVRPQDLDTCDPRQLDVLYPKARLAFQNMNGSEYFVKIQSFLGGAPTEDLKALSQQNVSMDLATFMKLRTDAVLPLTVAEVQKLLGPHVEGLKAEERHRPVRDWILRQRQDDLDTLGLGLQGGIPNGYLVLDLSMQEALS

Kd (EGFR His antigen): 1.27 nM | koff (EGFR His antigen): 2.48e-05 s⁻¹ | kon (EGFR His antigen): 19500 M⁻¹ s⁻¹ | EC50 (EGFR expressed on cells [1]): 6.51 nM
B1: E454(VHH), hFc fusion (Fc fusion)
chain: QVQLVESGGGLVQPGGSLNLSCAASGFDFSSVTMSWHRQSPGKERETVAVISNIGNRNVGSSVRGRFTISRDNKKQTVHLQMDNLKPEDTGIYRCKAWGLDLWGPGTQVTVSS
notes: also called anti-EGFR VHH (E454(VHH)); not shown: human Fc

EC50 (BCMA expressed on cells): 1.68 nM | Kd (BCMA-His antigen): 0.125 nM | koff (BCMA-His antigen): 0.000365 s⁻¹ | kon (BCMA-His antigen): 2.92e+06 M⁻¹ s⁻¹
B2: B029(VHH), hFc fusion (Fc fusion)
chain: QVQLVESGGGLVQPGGSLRLSCAASGSITSIYAIGWYRQAPGKLRELVAAITTSGNTFYRDSVKGRFTISRDNAKNTVSLQMNSLKSEDTAVYDCNGAPWGDHAPLVVSWDQGTQVTVSS
notes: not shown: human Fc

EC50 (EGFR expressed on cells [2]): 28.6 nM | EC50 [3]: 35.6 nM
B3: TCP021-P (bispecific antibody)
chain: QLQLGASGGGLVQPGGSLRLSCALSGFTLRELDEFAIGWFRQAPGKEREGVSCISGTGGITHYADSVKGRFTISRDIAKTTVYLQMNSLNSEDTAVYYCAADERCTDRLIRPPTYWGQGTQVTVSSGGGGSGGGGSGGGGSQVQLVESGGGLVQPGGSLNLSCAASGFDFSSVTMSWHRQSPGKERETVAVISNIGNRNVGSSVRGRFTISRDNKKQTVHLQMDNLKPEDTGIYRCKAWGLDLWGPGTQVTVSSGGGGSEQKLISEEDLGGGGSHHHHHH
notes: also called EGFR-TCP; anti-M-ICAP VHH (M2339) - 3xGGGGS linker - anti-EGFR VHH (E454(VHH)) - Myc and HIS

Source: patent US20230058519A1 (SHANGHAI CELL THERAPY GROUP, published 2023)
